Data: article PMC11722432

Target: dynein-dynactin complex (pig brain dynein with pig brain dynactin) (pig (endogenous in pig brain)) (UniProt F2Z5G5)
Assay: negative-stain EM

Kd: 5.11 µM
Substance: full-length BicdR1 (from UniProt A0JNT9 1-577) (natural protein)
